Molecular target: the molecule itself
Assay: SEC; Superdex 200 10/300 GL, buffer A (25 mM Tris, 500 mM NaCl, 0.174% (w/v) DM, pH 7.4), 0.5 ml/min, column calibrated with protein standards; fractions read by SDS PAGE; oligomer size from the elution volume

B1: human TPC2 DI pore (S212-A337), hexa-histidine-tagged (domain or fragment, UniProt Q8NHX9 212-337, looked up)
chain: SLPEMASVGLLLAIHLCLFTMFGMLLFAGGKQDDGQDRERLTYFQNLPESLTSLLVLLTTANNPDVMIPAYSKNRAYAIFFIVFTVIGSLFLMNLLTAIIYSQFRGYLMKSLQTSLFRRRLGTRAA
notes: two-pore channel 2 (TPC2), human, domain I pore region (S5-S6), residues S212-A337, codon-optimised synthetic gene in pET15b; numbers count on the full length channel; No removal of the His tag is described; also called hexaHis-DI pore; DI pore-only protein
stoichiometry N: 4

Reference: PMC5150636, “Isolated pores dissected from human two-pore channel 2 are functional” (Scientific Reports, 2016)
